# Measurements taken from the supplement of paper PMC5998384.
# Key:
# HeLa Kyoto [1] = assay: solubility in G1/S (NP-40 vs SDS abundance) (log2 ratio); higher = more soluble; settings: cell cycle stage: G1/S
# HeLa Kyoto [2] = assay: solubility change mitosis vs G1/S (difference of NP-40 vs SDS log2 ratios) (log2 ratio difference); higher = more soluble in mitosis
# HeLa Kyoto [3] = assay: thermal stability score vs G1/S (z-score of summed log2 fold changes over temperatures); higher = more thermally stable than in G1/S
# [4] = cell cycle stage: early G1 (4.5 h after nocodazole release)
# 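Throughout, for solubility change mitosis vs G1/S (difference of NP-40 vs SDS log2 ratios): synchronized HeLa Kyoto cells (double thymidine block for G1/S, nocodazole release for mitosis), protein amounts in NP-40 versus SDS lysates quantified by mass spectrometry, three biological replicates.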
# 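Throughout, for solubility in G1/S (NP-40 vs SDS abundance): HeLa Kyoto cells arrested at G1/S by double thymidine block, proteins quantified by TMT10plex mass spectrometry in mild NP-40 versus SDS extracts, three biological replicates.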
# 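Throughout, for thermal stability score vs G1/S (z-score of summed log2 fold changes over temperatures): synchronized HeLa Kyoto cells, proteins quantified by TMT10plex mass spectrometry, three biological replicates, mitosis taken 0.5 h after nocodazole release, G1/S directly after double thymidine block.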
Substance,solubility in G1/S (log2) (HeLa Kyoto [1]),solubility change mitosis (log2) (HeLa Kyoto [2]),thermal stability score (HeLa Kyoto [3]; [4]),thermal stability score (HeLa Kyoto [3]; cell cycle stage: mitosis)
MKEEAFLRRRFSLCPPSSTPQKVDPRKLTRNLLLSGDNELYPLSPGKDMEPNGPSLPRDEGPPTPSSATKVPPAEYRLCNGSDKECVSPTARVTKKETLKAQKENYRQEKKRATRQLLSALTDPSVVIMADSLKIRGTLKSWTKLWCVLKPGVLLIYKTPKVGQWVGTVLLHCCELIERPSKKDGFCFKLFHPLDQSVWAVKGPKGESVGSITQPLPSSYLIFRAASESDGRCWLDALELALRCSSLLRLGTCKPGRDGEPGTSPDASPSSLCGLPASATVHPDQDLFPLNGSSLENDAFSDKSERENPEESDTETQDHSRKTESGSDQSETPGAPVRRGTTYVEQVQEELGELGEASQVETVSEENKSLMWTLLKQLRPGMDLSRVVLPTFVLEPRSFLNKLSDYYYHADLLSRAAVEEDAYSRMKLVLRWYLSGFYKKPKGIKKPYNPILGETFRCCWFHPQTDSRTFYIAEQVSHHPPVSAFHVSNRKDGFCISGSITAKSRFYGNSLSALLDGKATLTFLNRAEDYTLTMPYAHCKGILYGTMTLELGGKVTIECAKNNFQAQLEFKLKPFFGGSTSINQISGKITSGEEVLASLSGHWDRDVFIKEEGSGSSALFWTPSGEVRRQRLRQHTVPLEEQTELESERLWQHVTRAISKGDQHRATQEKFALEEAQRQRARERQESLMPWKPQLFHLDPITQEWHYRYEDHSPWDPLKDIAQFEQDGILRTLQQEAVARQTTFLGSPGPRHERSGPDQRLRKASDQPSGHSQATESSGSTPESCPELSDEEQDGDFVPGGESPCPRCRKEARRLQALHEAILSIREAQQELHRHLSAMLSSTARAAQAPTPGLLQSPRSWFLLCVFLACQLFINHILK [OSBPL5],-0.0107,0.12,0.206,0.353
MSQGILSPPAGLLSDDDVVVSPMFESTAADLGSVVRKNLLSDCSVVSTSLEDKQQVPSEDSMEKVKVYLRVRPLLPSELERQEDQGCVRIENVETLVLQAPKDSFALKSNERGIGQATHRFTFSQIFGPEVGQASFFNLTVKEMVKDVLKGQNWLIYTYGVTNSGKTHTIQGTIKDGGILPRSLALIFNSLQGQLHPTPDLKPLLSNEVIWLDSKQIRQEEMKKLSLLNGGLQEEELSTSLKRSVYIESRIGTSTSFDSGIAGLSSISQCTSSSQLDETSHRWAQPDTAPLPVPANIRFSIWISFFEIYNELLYDLLEPPSQQRKRQTLRLCEDQNGNPYVKDLNWIHVQDAEEAWKLLKVGRKNQSFASTHLNQNSSRSHSIFSIRILHLQGEGDIVPKISELSLCDLAGSERCKDQKSGERLKEAGNINTSLHTLGRCIAALRQNQQNRSKQNLVPFRDSKLTRVFQGFFTGRGRSCMIVNVNPCASTYDETLHVAKFSAIASQLVHAPPMQLGFPSLHSFIKEHSLQVSPSLEKGAKADTGLDDDIENEADISMYGKEELLQVVEAMKTLLLKERQEKLQLEMHLRDEICNEMVEQMQQREQWCSEHLDTQKELLEEMYEEKLNILKESLTSFYQEEIQERDEKIEELEALLQEARQQSVAHQQSGSELALRRSQRLAASASTQQLQEVKAKLQQCKAELNSTTEELHKYQKMLEPPPSAKPFTIDVDKKLEEGQKNIRLLRTELQKLGESLQSAERACCHSTGAGKLRQALTTCDDILIKQDQTLAELQNNMVLVKLDLRKKAACIAEQYHTVLKLQGQVSAKKRLGTNQENQQPNQQPPGKKPFLRNLLPRTPTCQSSTDCSPYARILRSRRSPLLKSGPFGKKY [KIF20A],-0.582,-0.0791,0.449,3.61
MDRAPTEQNVKLSAEVEPFIPQKKSPDTFMIPMALPNDNGSVSGVEPTPIPSYLITCYPFVQENQSNRQFPLYNNDIRWQQPNPNPTGPYFAYPIISAQPPVSTEYTYYQLMPAPCAQVMGFYHPFPTPYSNTFQAANTVNAITTECTERPSQLGQVFPLSSHRSRNSNRGSVVPKQQLLQQHIKSKRPLVKNVATQKETNAAGPDSRSKIVLLVDASQQTDFPSDIANKSLSETTATMLWKSKGRRRRASHPTAESSSEQGASEADIDSDSGYCSPKHSNNQPAAGALRNPDSGTMNHVESSMCAGGVNWSNVTCQATQKKPWMEKNQTFSRGGRQTEQRNNSQVGFRCRGHSTSSERRQNLQKRPDNKHLSSSQSHRSDPNSESLYFEDEDGFQELNENGNAKDENIQQKLSSKVLDDLPENSPINIVQTPIPITTSVPKRAKSQKKKALAAALATAQEYSEISMEQKKLQEALSKAAGKKNKTPVQLDLGDMLAALEKQQQAMKARQITNTRPLSYTVVTAASFHTKDSTNRKPLTKSQPCLTSFNSVDIASSKAKKGKEKEIAKLKRPTALKKVILKEREEKKGRLTVDHNLLGSEEPTEMHLDFIDDLPQEIVSQEDTGLSMPSDTSLSPASQNSPYCMTPVSQGSPASSGIGSPMASSTITKIHSKRFREYCNQVLCKEIDECVTLLLQELVSFQERIYQKDPVRAKARRRLVMGLREVTKHMKLNKIKCVIISPNCEKIQSKGGLDEALYNVIAMAREQEIPFVFALGRKALGRCVNKLVPVSVVGIFNYFGAESLFNKLVELTEEARKAYKDMVAAMEQEQAEEALKNVKKVPHHMGHSRNPSAASAISFCSVISEPISEVNEKEYETNWRNMVETSDGLEASENEKEVSCKHSTSEKPSKLPFDTPPIGKQPSLVATGSTTSATSAGKSTASDKEEVKPDDLEWASQQSTETGSLDGSCRDLLNSSITSTTSTLVPGMLEEEEDEDEEEEEDYTHEPISVEVQLNSRIESWVSETQRTMETLQLGKTLNGSEEDNVEQSGEEEAEAPEVLEPGMDSEAWTADQQASPGQQKSSNCSSLNKEHSDSNYTTQTT [SECISBP2L],-0.226,0.0796,1.54,2.5
MANSMNGRNPGGRGGNPRKGRILGIIDAIQDAVGPPKQAAADRRTVEKTWKLMDKVVRLCQNPKLQLKNSPPYILDILPDTYQHLRLILSKYDDNQKLAQLSENEYFKIYIDSLMKKSKRAIRLFKEGKERMYEEQSQDRRNLTKLSLIFSHMLAEIKAIFPNGQFQGDNFRITKADAAEFWRKFFGDKTIVPWKVFRQCLHEVHQISSGLEAMALKSTIDLTCNDYISVFEFDIFTRLFQPWGSILRNWNFLAVTHPGYMAFLTYDEVKARLQKYSTKPGSYIFRLSCTRLGQWAIGYVTGDGNILQTIPHNKPLFQALIDGSREGFYLYPDGRSYNPDLTGLCEPTPHDHIKVTQEQYELYCEMGSTFQLCKICAENDKDVKIEPCGHLMCTSCLTAWQESDGQGCPFCRCEIKGTEPIIVDPFDPRDEGSRCCSIIDPFGMPMLDLDDDDDREESLMMNRLANVRKCTDRQNSPVTSPGSSPLAQRRKPQPDPLQIPHLSLPPVPPRLDLIQKGIVRSPCGSPTGSPKSSPCMVRKQDKPLPAPPPPLRDPPPPPPERPPPIPPDNRLSRHIHHVESVPSRDPPMPLEAWCPRDVFGTNQLVGCRLLGEGSPKPGITASSNVNGRHSRVGSDPVLMRKHRRHDLPLEGAKVFSNGHLGSEEYDVPPRLSPPPPVTTLLPSIKCTGPLANSLSEKTRDPVEEDDDEYKIPSSHPVSLNSQPSHCHNVKPPVRSCDNGHCMLNGTHGPSSEKKSNIPDLSIYLKGDVFDSASDPVPLPPARPPTRDNPKHGSSLNRTPSDYDLLIPPLGEDAFDALPPSLPPPPPPARHSLIEHSKPPGSSSRPSSGQDLFLLPSDPFVDLASGQVPLPPARRLPGENVKTNRTSQDYDQLPSCSDGSQAPARPPKPRPRRTAPEIHHRKPHGPEAALENVDAKIAKLMGEGYAFEEVKRALEIAQNNVEVARSILREFAFPPPVSPRLNL [CBLB],-0.447,0.0975,-0.843,-0.129
VKORC1,-0.134,0.136,-0.761,-1.55
MIDSVKLRRDSAADFFSHYEYLCALQNSVPLPAVRACLREGVLDFNADRLRGVDWAPLLSTLKINKDLPLVSIKSFFQPWLGDTGSDMNKFCRSRVPAIRYKDVTFQLCKALKGCLSISSVLKNLELNGLILRERDLTILAKGLNKSASLVHLSLANCPIGDGGLEIICQGIKSSITLKTVNFTGCNLTWQGADHMAKILKYQTMRRHEETWAESLRYRRPDLDCMAGLRRITLNCNTLIGDLGACAFADSLSEDLWLRALDLQQCGLTNEGAKALLEALETNTTLVVLDIRKNPLIDHSMMKAVIKKVLQNGRSAKSEYQWITSPSVKEPSKTAKQKRRTIILGSGHKGKATIRIGLATKKPVSSGRKHSLGKEYYAPAPLPPGVSGFLPWRTAERAKRHRGFPLIKTRDICNQLQQPGFPVTVTVESPSSSEVEEVDDSSESVHEVPEKTSIEQEALQEKLEECLKQLKEERVIRLKVDKRVSELEHENAQLRNINFSLSEALHAQSLTNMILDDEGVLGSIENSFQKFHAFLDLLKDAGLGQLATMAGIDQSDFQLLGHPQMTSTVSNPPKEEKKALEDEKPEPKQNALGQMQNIQFQKITGDARIPLPLDSFPVPVSTPEGLGTSSNNLGVPATEQRQESFEGFIARMCSPSPDATSGTGSQRKEEELSRNSRSSSEKKTKTESH [CEP78],0.0898,0.821,2.82,3.49
